The target in experiment [1] is T1, human Kell glycoprotein, k form (KEL2) (human, UniProt P23276 1-732).
T1 construct: whole, on cells; On human k/k or K-k+ RBCs; also called k antigen
T1 sequence (looked up): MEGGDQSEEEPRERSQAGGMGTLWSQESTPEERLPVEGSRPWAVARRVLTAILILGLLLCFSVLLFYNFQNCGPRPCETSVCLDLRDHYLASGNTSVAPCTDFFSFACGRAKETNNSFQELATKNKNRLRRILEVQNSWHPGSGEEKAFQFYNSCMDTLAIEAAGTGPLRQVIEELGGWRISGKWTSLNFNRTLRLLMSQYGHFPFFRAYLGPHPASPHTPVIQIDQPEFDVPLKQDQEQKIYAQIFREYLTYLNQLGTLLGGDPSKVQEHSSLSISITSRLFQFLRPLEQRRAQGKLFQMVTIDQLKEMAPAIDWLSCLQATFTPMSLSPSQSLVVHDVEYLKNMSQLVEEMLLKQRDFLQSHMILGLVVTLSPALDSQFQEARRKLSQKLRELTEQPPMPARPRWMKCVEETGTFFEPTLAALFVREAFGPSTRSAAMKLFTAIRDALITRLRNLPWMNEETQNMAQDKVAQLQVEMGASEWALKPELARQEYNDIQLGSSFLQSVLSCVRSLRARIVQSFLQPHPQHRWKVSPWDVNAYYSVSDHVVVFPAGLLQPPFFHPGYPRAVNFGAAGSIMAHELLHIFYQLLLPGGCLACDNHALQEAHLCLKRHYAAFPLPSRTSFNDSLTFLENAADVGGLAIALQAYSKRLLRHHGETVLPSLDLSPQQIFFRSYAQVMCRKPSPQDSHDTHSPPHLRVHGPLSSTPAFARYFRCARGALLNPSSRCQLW
The experiment is described as follows: flow cytometry on human K-k+ RBCs.

The target of experiment [2] is T2, human Kell glycoprotein, K form (KEL1) (human, UniProt P23276 1-732).
T2 construct: whole, on cells; On human K/K or K+k+ RBCs and on RBCs of K transgenic mice; also called K antigen; K variant
T2 sequence (looked up): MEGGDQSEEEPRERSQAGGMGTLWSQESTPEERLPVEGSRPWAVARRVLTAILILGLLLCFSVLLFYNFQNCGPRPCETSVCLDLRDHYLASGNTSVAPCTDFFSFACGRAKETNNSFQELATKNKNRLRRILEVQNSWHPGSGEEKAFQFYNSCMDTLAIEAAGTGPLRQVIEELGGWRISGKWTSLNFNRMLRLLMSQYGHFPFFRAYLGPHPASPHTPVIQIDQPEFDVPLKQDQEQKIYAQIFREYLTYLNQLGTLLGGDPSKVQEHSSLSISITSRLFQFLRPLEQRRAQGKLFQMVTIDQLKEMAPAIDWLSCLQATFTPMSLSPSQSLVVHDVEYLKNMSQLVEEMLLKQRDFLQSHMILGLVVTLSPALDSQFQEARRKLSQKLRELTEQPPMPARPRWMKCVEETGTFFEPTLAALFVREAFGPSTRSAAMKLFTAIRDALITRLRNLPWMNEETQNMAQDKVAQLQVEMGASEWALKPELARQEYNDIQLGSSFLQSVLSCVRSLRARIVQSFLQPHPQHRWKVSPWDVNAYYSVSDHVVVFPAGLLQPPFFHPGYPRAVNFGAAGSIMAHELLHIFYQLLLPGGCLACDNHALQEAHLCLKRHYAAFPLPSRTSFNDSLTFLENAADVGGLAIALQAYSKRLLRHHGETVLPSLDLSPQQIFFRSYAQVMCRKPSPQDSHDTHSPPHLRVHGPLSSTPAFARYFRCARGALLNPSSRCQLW
The experiment in a line: flow cytometry on human K+k+ RBCs, detected with polyclonal anti-IgG. The procedure:
Flow cytometry consisted of incubating test RBCs with PUMA 1 variants, followed by the anti-IgG being evaluated, followed by a detection reagent. Test RBCs included RBCs from K mice, wild-type mice, and reagent RBCs from humans with the phenotype of (K+k+) or (K−k+). Test RBCs were resuspended in 50 microliters of supernatants of PUMA 1 isoallotypes; in some cases a 1/10 dilution in phosphate buffered saline (PBS) was used. For purified IgG1-IgG4 PUMA 1, the antibodies were diluted in PBS at the indicated concentrations. The tested anti-IgG reagents were used undiluted. Detection reagents consisted of donkey anti-rabbit conjugated to phycoerythrin at a 1/200 dilution (Affymetrix cat #12-4739-81, Santa Clara, Calif.), goat anti-mouse IgM conjugated to allophycocyanin at a 1/100 dilution (BD Biosciences, cat #550826, San Jose, Calif.), and goat anti-mouse Igs conjugated to allophycocyanin at a 1/100 dilution (SouthernBiotech cat #1020-11s, Birmingham, Ala.). All anti-IgG subclass antibodies were conjugated to phycoerythrin, were purchased from SouthernBiotech (catalog numbers 9056-09, 9070-09, 9210-09, 9200-09), and were used at a dilution of 1.200. All incubations were performed for 30 min at room temperature, followed by three washes with PBS. All flow cytometry was performed on an Accuri 4 color cytometer (BD biosciences, San Jose Calif.) and all data was analyzed with Flo-Jo version 10.
To assess the sensitivity of commercially available anti-IgG preparations for different human IgG subclasses bound to RBCs, K+k+ RBCs were first incubated with PUMA 1 of the different human IgG subclasses, followed by incubation with anti-IgG. Treated RBCs were then stained with a fluorescently labeled antibody specific for the species in which the anti-IgG was generated (and non-reactive with human IgG). For each anti-IgG, the same secondary antibody was used to detect binding of the anti-IgG to each human PUMA 1 IgG subclass. To assess relative sensitivity, titrations of each PUMA 1 IgG subclass were carried out and samples were analyzed by flow cytometry using mean fluorescent intensity (MFI) to quantify staining (FIGS. 28A, 28B).

B1: PUMA 1 human IgG1-03 isoallotype (antibody)
heavy: EVQLQQSGPELVKPGASVKMSCKASGYTFTDYYMKWVKQSHGKSLEWIGDLNPNNGDTFYNQKFKGKATLTVDKSSSTAYIQLNSLTSEDSAVYYCAREAGSSFGSSCNYWGQGTTLTVS
light: SVVMTQTPKFLLVSAGDRVTITCKASQTVSKDVAWYQQQPGQSPKLLIYYASNRYTGVPDRFTGSGYGTDFTFTISTVQAEDLAVYFCQQDYSSPYTFGGGTKLEIK
notes: Isoallotype named in CLM-00007; not shown: human IgG1 heavy chain constant region, isoallotype IGHG1*03; human kappa light chain constant region (vector pFUSE2-CLIg-hk)
As to B1, the binding result in experiment [1] was “no binding”; in experiment [2], “binds”.

B2: PUMA 1 human IgG3 (canonical, isoallotype IgG3-01) (antibody)
heavy: EVQLQQSGPELVKPGASVKMSCKASGYTFTDYYMKWVKQSHGKSLEWIGDLNPNNGDTFYNQKFKGKATLTVDKSSSTAYIQLNSLTSEDSAVYYCAREAGSSFGSSCNYWGQGTTLTVSASTKGPSVFPLAPCSRSTSGGTAALGCLVKDYFPEPVTVSWNSGALTSGVHTFPAVLQSSGLYSLSSVVTVPSSSLGTQTYTCNVNHKPSNTKVDKRVELKTPLGDTTHTCPRCPEPKSCDTPPPCPRCPEPKSCDTPPPCPRCPEPKSCDTPPPCPRCPAPELLGGPSVFLFPPKPKDTLMISRTPEVTCVVVDVSHEDPEVQFKWYVDGVEVHNAKTKPREEQYNSTFRVVSVLTVLHQDWLNGKEYKCKVSNKALPAPIEKTISKTKGQPREPQVYTLPPSREEMTKNQVSLTCLVKGFYPSDIAVEWESSGQPENNYNTTPPMLDSDGSFFLYSKLTVDKSRWQQGNIFSCSVMHEALHNRFTQKSLSLSPGK
light: SVVMTQTPKFLLVSAGDRVTITCKASQTVSKDVAWYQQQPGQSPKLLIYYASNRYTGVPDRFTGSGYGTDFTFTISTVQAEDLAVYFCQQDYSSPYTFGGGTKLEIK
notes: also called PUMA1-IgG3; PUMA 1 IgG3; not shown: human kappa light chain constant region (vector pFUSE2-CLIg-hk)
Take B2: the binding result in experiment [1] is given as “no binding”.

B3: PUMA 1 human IgG1-05 isoallotype (antibody)
heavy: EVQLQQSGPELVKPGASVKMSCKASGYTFTDYYMKWVKQSHGKSLEWIGDLNPNNGDTFYNQKFKGKATLTVDKSSSTAYIQLNSLTSEDSAVYYCAREAGSSFGSSCNYWGQGTTLTVS
light: SVVMTQTPKFLLVSAGDRVTITCKASQTVSKDVAWYQQQPGQSPKLLIYYASNRYTGVPDRFTGSGYGTDFTFTISTVQAEDLAVYFCQQDYSSPYTFGGGTKLEIK
notes: Isoallotype named in CLM-00007; not shown: human IgG1 heavy chain constant region, isoallotype IGHG1*05; human kappa light chain constant region (vector pFUSE2-CLIg-hk)
With B3, the values for the binding result in experiment [1] and in experiment [2] were “no binding” and “binds”, respectively.

B4: PUMA 1 human IgG2 (canonical, isoallotype IgG2-01) (antibody)
heavy: EVQLQQSGPELVKPGASVKMSCKASGYTFTDYYMKWVKQSHGKSLEWIGDLNPNNGDTFYNQKFKGKATLTVDKSSSTAYIQLNSLTSEDSAVYYCAREAGSSFGSSCNYWGQGTTLTVSASTKGPSVFPLAPCSRSTSESTAALGCLVKDYFPEPVTVSWNSGALTSGVHTFPAVLQSSGLYSLSSVVTVPSSNFGTQTYTCNVDHKPSNTKVDKTVERKCCVECPPCPAPPVAGPSVFLFPPKPKDTLMISRTPEVTCVVVDVSHEDPEVQFNWYVDGVEVHNAKTKPREEQFNSTFRVVSVLTVVHQDWLNGKEYKCKVSNKGLPAPIEKTISKTKGQPREPQVYTLPPSREEMTKNQVSLTCLVKGFYPSDIAVEWESNGQPENNYKTTPPMLDSDGSFFLYSKLTVDKSRWQQGNVFSCSVMHEALHNHYTQKSLSLSPGK
light: SVVMTQTPKFLLVSAGDRVTITCKASQTVSKDVAWYQQQPGQSPKLLIYYASNRYTGVPDRFTGSGYGTDFTFTISTVQAEDLAVYFCQQDYSSPYTFGGGTKLEIK
notes: also called PUMA1-IgG2; PUMA 1 IgG2; not shown: human kappa light chain constant region (vector pFUSE2-CLIg-hk)
On to B4, for which, in experiment [1], the binding result is given as “no binding”.

B5: PUMA 1 human IgG1-08 isoallotype (antibody)
heavy: EVQLQQSGPELVKPGASVKMSCKASGYTFTDYYMKWVKQSHGKSLEWIGDLNPNNGDTFYNQKFKGKATLTVDKSSSTAYIQLNSLTSEDSAVYYCAREAGSSFGSSCNYWGQGTTLTVS
light: SVVMTQTPKFLLVSAGDRVTITCKASQTVSKDVAWYQQQPGQSPKLLIYYASNRYTGVPDRFTGSGYGTDFTFTISTVQAEDLAVYFCQQDYSSPYTFGGGTKLEIK
notes: Isoallotype named in CLM-00007; not shown: human IgG1 heavy chain constant region, isoallotype IGHG1*08; human kappa light chain constant region (vector pFUSE2-CLIg-hk)
In the case of B5, the binding result in experiment [1] is listed as “no binding”; in experiment [2], “binds”.

B6: PUMA 1 human IgG4 (canonical, isoallotype IgG4-01) (antibody)
heavy: EVQLQQSGPELVKPGASVKMSCKASGYTFTDYYMKWVKQSHGKSLEWIGDLNPNNGDTFYNQKFKGKATLTVDKSSSTAYIQLNSLTSEDSAVYYCAREAGSSFGSSCNYWGQGTTLTVSASTKGPSVFPLAPCSRSTSESTAALGCLVKDYFPEPVTVSWNSGALTSGVHTFPAVLQSSGLYSLSSVVTVPSSSLGTKTYTCNVDHKPSNTKVDKRVESKYGPPCPSCPAPEFLGGPSVFLFPPKPKDTLMISRTPEVTCVVVDVSQEDPEVQFNWYVDGVEVHNAKTKPREEQFNSTYRVVSVLTVLHQDWLNGKEYKCKVSNKGLPSSIEKTISKAKGQPREPQVYTLPPSQEEMTKNQVSLTCLVKGFYPSDIAVEWESNGQPENNYKTTPPVLDSDGSFFLYSRLTVDKSRWQEGNVFSCSVMHEALHNHYTQKSLSLSPGK
light: SVVMTQTPKFLLVSAGDRVTITCKASQTVSKDVAWYQQQPGQSPKLLIYYASNRYTGVPDRFTGSGYGTDFTFTISTVQAEDLAVYFCQQDYSSPYTFGGGTKLEIK
notes: also called PUMA1-IgG4; PUMA 1 IgG4; not shown: human kappa light chain constant region (vector pFUSE2-CLIg-hk)
Turning to B6, in experiment [1], the binding result is recorded as “no binding”.

B7: PUMA 1 human IgG1-07 isoallotype (antibody)
heavy: EVQLQQSGPELVKPGASVKMSCKASGYTFTDYYMKWVKQSHGKSLEWIGDLNPNNGDTFYNQKFKGKATLTVDKSSSTAYIQLNSLTSEDSAVYYCAREAGSSFGSSCNYWGQGTTLTVS
light: SVVMTQTPKFLLVSAGDRVTITCKASQTVSKDVAWYQQQPGQSPKLLIYYASNRYTGVPDRFTGSGYGTDFTFTISTVQAEDLAVYFCQQDYSSPYTFGGGTKLEIK
notes: Isoallotype named in CLM-00007; not shown: human IgG1 heavy chain constant region, isoallotype IGHG1*07; human kappa light chain constant region (vector pFUSE2-CLIg-hk)
Take B7: the binding result in experiment [1] is on record as “no binding”; in experiment [2], “binds”.

B8: PUMA 1 human IgG1 (canonical, isoallotype IgG1-01) (antibody)
heavy: not shown
light: SVVMTQTPKFLLVSAGDRVTITCKASQTVSKDVAWYQQQPGQSPKLLIYYASNRYTGVPDRFTGSGYGTDFTFTISTVQAEDLAVYFCQQDYSSPYTFGGGTKLEIK
notes: also called PUMA1-IgG1; PUMA 1 IgG1; not shown: human kappa light chain constant region (vector pFUSE2-CLIg-hk)
For B8, the binding result in experiment [1] is given as “no binding”.

B9: PUMA 1 human IgG1-01v2 isoallotype (antibody)
heavy: EVQLQQSGPELVKPGASVKMSCKASGYTFTDYYMKWVKQSHGKSLEWIGDLNPNNGDTFYNQKFKGKATLTVDKSSSTAYIQLNSLTSEDSAVYYCAREAGSSFGSSCNYWGQGTTLTVS
light: SVVMTQTPKFLLVSAGDRVTITCKASQTVSKDVAWYQQQPGQSPKLLIYYASNRYTGVPDRFTGSGYGTDFTFTISTVQAEDLAVYFCQQDYSSPYTFGGGTKLEIK
notes: Isoallotype named in CLM-00007; also called IGHG1*01v2; not shown: human IgG1 heavy chain constant region, isoallotype IGHG1*01v2; human kappa light chain constant region (vector pFUSE2-CLIg-hk)
For the molecule B9, the binding result in experiment [1] is given as “no binding”; in experiment [2] it was “binds”.

These data come from patent publication US20210356479A1 (BLOODWORKS, published 2021).
